Results on 13 molecules are retold here after article PMC10663500, “High-throughput analysis system of interaction kinetics for data-driven antibody design” (Scientific Reports, 2023).

The Kd is the concentration at which binding is half-saturated. Higher therefore signals lower affinity. Broadly, the koff is the rate constant with which the complex falls apart. A word on the kon: it is a measure of how fast the partners come together. A lower kon goes with slow association.

In assay [1] the target is T1, human programmed cell death protein 1 (hPD-1) C93S (aa 24-167) (Homo sapiens, UniProt Q15116, C93S).
T1 construct: made as a fusion with a TEV site and human Fc; the Fc was cut off with TEV protease; source: Expi293F, purified (Protein A, TEV cleavage of Fc, SEC; monomer fractions); not shown: Fc (human), C-terminal, cleaved
T1 sequence (Q15116 24-167 C93S): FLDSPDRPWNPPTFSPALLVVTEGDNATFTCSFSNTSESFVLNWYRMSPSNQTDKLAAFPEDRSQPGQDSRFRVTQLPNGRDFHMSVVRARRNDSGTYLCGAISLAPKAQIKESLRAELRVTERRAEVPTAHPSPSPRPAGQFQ
The assay can be described thus: SPR; Carterra LSA; Fab from the ammonium sulfate precipitate of the culture supernatant immobilised on a NiHC200M chip; hPD-1 (1-1024 nM) or mPD-1-Fc (4-1024 nM) as analyte, fourfold dilution series, no regeneration; HBS-EP pH 7.4, 25 °C; medians over the spots of a construct, KD = koff/kon. As to conditions: one partner purified. A digest of the protocol: (§1)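 On a Carterra LSA at 25 °C, duplicate captures of Fabs were made on a NiHC200M chip; the Fabs came from Brevibacillus culture supernatants, were precipitated with ammonium sulfate and were redissolved in HBS-EP. Fourfold series of human PD-1 (1–1024 nM) or mouse PD-1-Fc (4–1024 nM) were passed over without regeneration, with 10 min association and 5 min dissociation. Binders that were not confirmed were assigned kon 10^3 […] and koff 10^−2 s^−1. The kdka model, run with slow- or fast-dissociation settings and keeping the better fit, gave the rates, and KD was taken as koff/kon from the median values for each construct.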
In general terms: In SPR one partner is held on a chip, and binding of the other changes the refractive index at the surface.

Assay [2] deals with T2, mouse programmed cell death protein 1 Fc fusion protein (mPD-1-Fc), mPD-1 C60S (aa 25-167) (Mus musculus, UniProt Q02242, stabilised).
T2 construct: not cleaved; source: Expi293F, purified (Protein A, SEC; dimeric fraction); not shown: Fc (human), C-terminal, kept
Described as above. As to conditions: one partner purified. The method, boiled down: as §1

A value given as a limit tells only on which side of the number the result lay.

B1: toripalimab Fab L.F94Y (Fab, V domains shown)
VH: QGQLVQSGAEVKKPGASVKVSCKASGYTFTDYEMHWVRQAPIHGLEWIGVIESETGGTAYNQKFKGRVTITADKSTSTAYMELSSLRSEDTAVYYCAREGITTVATTYYWYFDVWGQGTTVTVSS
VL: DVVMTQSPLSLPVTLGQPASISCRSSQSIVHSNGNTYLEWYLQKPGQSPQLLIYKVSNRFSGVPDRFSGSGSGTDFTLKISRVEAEDVGVYYCYQGSHVPLTFGQGTKLEIK
notes: as the heavy chain of Sm3; light chain of Sm3 with this change; numbers count from the chain's first residue; source: Brevibacillus, culture supernatant (ammonium sulfate precipitate); not shown: 6xHis, C-terminal, kept; 6xHN, C-terminal, kept
In assay [1], B1 came in with a Kd of under 0.968 nM, a koff of under 1e-05 s⁻¹ and a kon of 10300 M⁻¹ s⁻¹. In assay [2], this molecule gave a Kd of 155 nM, a koff of 0.0129 s⁻¹ and a kon of 83200 M⁻¹ s⁻¹.

B2: toripalimab Fab L.H98A (Fab, V domains shown)
VH: QGQLVQSGAEVKKPGASVKVSCKASGYTFTDYEMHWVRQAPIHGLEWIGVIESETGGTAYNQKFKGRVTITADKSTSTAYMELSSLRSEDTAVYYCAREGITTVATTYYWYFDVWGQGTTVTVSS
VL: DVVMTQSPLSLPVTLGQPASISCRSSQSIVHSNGNTYLEWYLQKPGQSPQLLIYKVSNRFSGVPDRFSGSGSGTDFTLKISRVEAEDVGVYYCFQGSAVPLTFGQGTKLEIK
notes: as for B1
Take B2: in assay [1], the Kd is under 0.436 nM, the koff is under 1e-05 s⁻¹ and the kon was 22900 M⁻¹ s⁻¹. For the same molecule, in assay [2], the Kd amounted to 120 nM, the koff turned out to be 0.00523 s⁻¹ and the kon was 43600 M⁻¹ s⁻¹.

B3: toripalimab Fab L.Q95A (Fab, V domains shown)
VH: QGQLVQSGAEVKKPGASVKVSCKASGYTFTDYEMHWVRQAPIHGLEWIGVIESETGGTAYNQKFKGRVTITADKSTSTAYMELSSLRSEDTAVYYCAREGITTVATTYYWYFDVWGQGTTVTVSS
VL: DVVMTQSPLSLPVTLGQPASISCRSSQSIVHSNGNTYLEWYLQKPGQSPQLLIYKVSNRFSGVPDRFSGSGSGTDFTLKISRVEAEDVGVYYCFAGSHVPLTFGQGTKLEIK
notes: as for B1
In assay [1], B3 yielded a Kd of 2.28 nM, a koff of 4.22e-05 s⁻¹ and a kon of 18500 M⁻¹ s⁻¹. In assay [2], this molecule gave a Kd of 130 nM, a koff of 0.00506 s⁻¹ and a kon of 39000 M⁻¹ s⁻¹.

B4: toripalimab Fab L.S97A (Fab, V domains shown)
VH: QGQLVQSGAEVKKPGASVKVSCKASGYTFTDYEMHWVRQAPIHGLEWIGVIESETGGTAYNQKFKGRVTITADKSTSTAYMELSSLRSEDTAVYYCAREGITTVATTYYWYFDVWGQGTTVTVSS
VL: DVVMTQSPLSLPVTLGQPASISCRSSQSIVHSNGNTYLEWYLQKPGQSPQLLIYKVSNRFSGVPDRFSGSGSGTDFTLKISRVEAEDVGVYYCFQGAHVPLTFGQGTKLEIK
notes: as for B1
In assay [1], B4 had a dissociation constant Kd of 1.88 nM, a koff of 4.49e-05 s⁻¹ and a kon of 23800 M⁻¹ s⁻¹. In assay [2], the affinity, expressed as Kd, was 678 nM; the koff stood at 0.0274 s⁻¹; the kon was determined as 40400 M⁻¹ s⁻¹.

B5: toripalimab Fab H.I51A (Fab, V domains shown)
VH: QGQLVQSGAEVKKPGASVKVSCKASGYTFTDYEMHWVRQAPIHGLEWIGVAESETGGTAYNQKFKGRVTITADKSTSTAYMELSSLRSEDTAVYYCAREGITTVATTYYWYFDVWGQGTTVTVSS
VL: DVVMTQSPLSLPVTLGQPASISCRSSQSIVHSNGNTYLEWYLQKPGQSPQLLIYKVSNRFSGVPDRFSGSGSGTDFTLKISRVEAEDVGVYYCFQGSHVPLTFGQGTKLEIK
notes: heavy chain of Sm3 with this change; numbers count from the chain's first residue; as the light chain of Sm3; source: Brevibacillus, culture supernatant (ammonium sulfate precipitate); not shown: 6xHis, C-terminal, kept; 6xHN, C-terminal, kept
In assay [1], B5 displayed a Kd of 1.06 nM, a koff of 1.6e-05 s⁻¹ and a kon of 15100 M⁻¹ s⁻¹. In addition, in assay [2], the affinity, expressed as Kd, was 630 nM; the koff was found to be 0.04 s⁻¹; the kon amounted to 63500 M⁻¹ s⁻¹.

B6: toripalimab Fab L.H98Y (Fab, V domains shown)
VH: QGQLVQSGAEVKKPGASVKVSCKASGYTFTDYEMHWVRQAPIHGLEWIGVIESETGGTAYNQKFKGRVTITADKSTSTAYMELSSLRSEDTAVYYCAREGITTVATTYYWYFDVWGQGTTVTVSS
VL: DVVMTQSPLSLPVTLGQPASISCRSSQSIVHSNGNTYLEWYLQKPGQSPQLLIYKVSNRFSGVPDRFSGSGSGTDFTLKISRVEAEDVGVYYCFQGSYVPLTFGQGTKLEIK
notes: as for B1
Regarding B6, in assay [1], the equilibrium dissociation constant (Kd) was found to be 0.737 nM, the koff was determined as 1.34e-05 s⁻¹ and the kon amounted to 18100 M⁻¹ s⁻¹. In assay [2], the Kd is 396 nM, the koff is 0.0148 s⁻¹ and the kon came out at 37400 M⁻¹ s⁻¹.

B7: toripalimab Fab L.V99A (Fab, V domains shown)
VH: QGQLVQSGAEVKKPGASVKVSCKASGYTFTDYEMHWVRQAPIHGLEWIGVIESETGGTAYNQKFKGRVTITADKSTSTAYMELSSLRSEDTAVYYCAREGITTVATTYYWYFDVWGQGTTVTVSS
VL: DVVMTQSPLSLPVTLGQPASISCRSSQSIVHSNGNTYLEWYLQKPGQSPQLLIYKVSNRFSGVPDRFSGSGSGTDFTLKISRVEAEDVGVYYCFQGSHAPLTFGQGTKLEIK
notes: as for B1
In the case of B7, in assay [1], the dissociation constant (Kd) turned out to be 1.61 nM, the koff came to 3.6e-05 s⁻¹ and the kon turned out to be 22300 M⁻¹ s⁻¹. In assay [2], the Kd turned out to be 15.2 nM, the koff stood at 0.000353 s⁻¹ and the kon was 23300 M⁻¹ s⁻¹.

B8: toripalimab Fab L.V99F (Fab, V domains shown)
VH: QGQLVQSGAEVKKPGASVKVSCKASGYTFTDYEMHWVRQAPIHGLEWIGVIESETGGTAYNQKFKGRVTITADKSTSTAYMELSSLRSEDTAVYYCAREGITTVATTYYWYFDVWGQGTTVTVSS
VL: DVVMTQSPLSLPVTLGQPASISCRSSQSIVHSNGNTYLEWYLQKPGQSPQLLIYKVSNRFSGVPDRFSGSGSGTDFTLKISRVEAEDVGVYYCFQGSHFPLTFGQGTKLEIK
notes: as for B1
In assay [1], B8 returned a Kd of 2.51 nM, a koff of 4.24e-05 s⁻¹ and a kon of 16900 M⁻¹ s⁻¹. In assay [2], this molecule had a Kd of 123 nM, a koff of 0.00104 s⁻¹ and a kon of 8450 M⁻¹ s⁻¹.

B9: toripalimab Fab L.V99E (Fab, V domains shown)
VH: QGQLVQSGAEVKKPGASVKVSCKASGYTFTDYEMHWVRQAPIHGLEWIGVIESETGGTAYNQKFKGRVTITADKSTSTAYMELSSLRSEDTAVYYCAREGITTVATTYYWYFDVWGQGTTVTVSS
VL: DVVMTQSPLSLPVTLGQPASISCRSSQSIVHSNGNTYLEWYLQKPGQSPQLLIYKVSNRFSGVPDRFSGSGSGTDFTLKISRVEAEDVGVYYCFQGSHEPLTFGQGTKLEIK
notes: as for B1
Take B9: in assay [1], the Kd is under 1.03 nM, the koff was under 1e-05 s⁻¹ and the kon is 9690 M⁻¹ s⁻¹. Further, in assay [2], binding was put at a Kd of 201 nM, the koff was 0.00742 s⁻¹ and the kon is 36800 M⁻¹ s⁻¹.

B10: toripalimab Fab L.V99D (Fab, V domains shown)
VH: QGQLVQSGAEVKKPGASVKVSCKASGYTFTDYEMHWVRQAPIHGLEWIGVIESETGGTAYNQKFKGRVTITADKSTSTAYMELSSLRSEDTAVYYCAREGITTVATTYYWYFDVWGQGTTVTVSS
VL: DVVMTQSPLSLPVTLGQPASISCRSSQSIVHSNGNTYLEWYLQKPGQSPQLLIYKVSNRFSGVPDRFSGSGSGTDFTLKISRVEAEDVGVYYCFQGSHDPLTFGQGTKLEIK
notes: as for B1
For the molecule B10, in assay [1], the Kd is 1.62 nM, the koff turned out to be 1.8e-05 s⁻¹ and the kon was determined as 11100 M⁻¹ s⁻¹. In assay [2], this molecule registered a Kd of 19.8 nM, a koff of 0.000759 s⁻¹ and a kon of 38300 M⁻¹ s⁻¹.

B11: toripalimab Fab L.V99I (Fab, V domains shown)
VH: QGQLVQSGAEVKKPGASVKVSCKASGYTFTDYEMHWVRQAPIHGLEWIGVIESETGGTAYNQKFKGRVTITADKSTSTAYMELSSLRSEDTAVYYCAREGITTVATTYYWYFDVWGQGTTVTVSS
VL: DVVMTQSPLSLPVTLGQPASISCRSSQSIVHSNGNTYLEWYLQKPGQSPQLLIYKVSNRFSGVPDRFSGSGSGTDFTLKISRVEAEDVGVYYCFQGSHIPLTFGQGTKLEIK
notes: as for B1
B11: in assay [1], the Kd was under 0.7 nM, the koff is under 1e-05 s⁻¹ and the kon was 14300 M⁻¹ s⁻¹. In addition, in assay [2], the affinity, expressed as Kd, was 289 nM; the koff was 0.014 s⁻¹; the kon was 48500 M⁻¹ s⁻¹.

B12: toripalimab Fab L.V99H (Fab, V domains shown)
VH: QGQLVQSGAEVKKPGASVKVSCKASGYTFTDYEMHWVRQAPIHGLEWIGVIESETGGTAYNQKFKGRVTITADKSTSTAYMELSSLRSEDTAVYYCAREGITTVATTYYWYFDVWGQGTTVTVSS
VL: DVVMTQSPLSLPVTLGQPASISCRSSQSIVHSNGNTYLEWYLQKPGQSPQLLIYKVSNRFSGVPDRFSGSGSGTDFTLKISRVEAEDVGVYYCFQGSHHPLTFGQGTKLEIK
notes: as for B1
In assay [1], B12 returned a Kd of 23.1 nM, a koff of 0.000239 s⁻¹ and a kon of 10400 M⁻¹ s⁻¹. In assay [2], binding was characterised by a dissociation constant (Kd) of 334 nM, the koff came to 0.00991 s⁻¹ and the kon was 29600 M⁻¹ s⁻¹.

B13: toripalimab Fab L.V99G (Fab, V domains shown)
VH: QGQLVQSGAEVKKPGASVKVSCKASGYTFTDYEMHWVRQAPIHGLEWIGVIESETGGTAYNQKFKGRVTITADKSTSTAYMELSSLRSEDTAVYYCAREGITTVATTYYWYFDVWGQGTTVTVSS
VL: DVVMTQSPLSLPVTLGQPASISCRSSQSIVHSNGNTYLEWYLQKPGQSPQLLIYKVSNRFSGVPDRFSGSGSGTDFTLKISRVEAEDVGVYYCFQGSHGPLTFGQGTKLEIK
notes: as for B1
B13: in assay [1], binding was characterised by a dissociation constant (Kd) of 1.75 nM, the off-rate (koff) stood at 1.44e-05 s⁻¹ and the kon came out at 8230 M⁻¹ s⁻¹. Further, in assay [2], the Kd is under 0.848 nM, the koff is under 1e-05 s⁻¹ and the kon was 11800 M⁻¹ s⁻¹.
